# Experimental data taken from US20220177597A1 (OSSIANIX, published 2022).
# Where a chain is given by its changes, count along the chain named. In names and notes the source's numbering stands.
# B1: F12 VNAR-hFc fusion (Fc fusion)
# chain: ARVDQTPQTITKEEGESLTINCVLRVHGRALASTSWYRKKSGSTREETISKGGRYVETVNSGSKSFSLRINDLTVEDSGTYRCNVYGLSFGDIEGVKKIDVYGDGTAVTVNA
# notes: Bivalent VNAR-Fc, VNAR N-terminal to human IgG1 Fc; Expi293; also called F12-hFc; clone F12; not shown: human IgG1 Fc (hinge, CH2, CH3) of vector pFUSE-hIgG1e3-Fc2
# B2: H12 VNAR-hFc fusion (Fc fusion)
# chain: B1 chain with R29C, G91V
# notes: Bivalent VNAR-Fc, VNAR N-terminal to human IgG1 Fc; Expi293; not shown: human IgG1 Fc (hinge, CH2, CH3) of vector pFUSE-hIgG1e3-Fc2
# B3: F1 VNAR-hFc fusion (Fc fusion)
# chain: B1 chain with F90S
# notes: Bivalent VNAR-Fc, VNAR N-terminal to human IgG1 Fc; Expi293; also called Fl; not shown: human IgG1 Fc (hinge, CH2, CH3) of vector pFUSE-hIgG1e3-Fc2
# B4: F11 VNAR-hFc fusion (Fc fusion)
# chain: ARVDQTPQTITKEEGESLTINCVLRGEFYALASTSWYRKKSGSTREETISKGGRYVETVNSGSKSFSLRINDLTVEDSGTYRCNVYGYRIFSPEVKGPNDVYGDGTAVTVNA
# notes: as for B2
# B5: G10 VNAR-hFc fusion (Fc fusion)
# chain: ARVDQTPQTITKETGESLTINCVLRDSNCALSSTYWYRKKSGSTNEENISKGGRYVETVNSGSKSFSLKINDLTVEDSGTYRCKVVFKLFSGRACAGEKDVYGGGTVVTVNA
# notes: as for B2
# B6: E12A VNAR-hFc fusion (Fc fusion)
# chain: ARVDQTPQTIAREEGESVTINCVVRDSNRALASTSWCSEKYVSTREESISKGGRYVETVNSGSKSFSLRINDLTVEDSGTYRCNVYFFPSFEVDVLQTNDVYGDGTAVTVNA
# notes: as for B2
# B7: H8 VNAR-hFc fusion (Fc fusion)
# chain: ARVDQTPQTITKETGESLTINCVLRDSNCALPSTYWYRKKSGSTNEESISKGGRYVETVNSGSKSFSLRINDLVVEDSGTYRCKVGNYCIRLCYDMKFAVDVYGGGTAVTVNA
# notes: as for B2
# B8: G3 VNAR-hFc fusion (Fc fusion)
# chain: ARVDQTPQTITKETGESLTINCVLRDNNCALSTTYWYRKKSGSTNEENISKGGRYVETVNSGSKSFSLRINDLTVEDSGTYRCKVHFFPSFCNSTSIRSVDVYGGGTVVTVNA
# notes: as for B2
# B9: A8 VNAR-hFc fusion (Fc fusion)
# chain: ARVDQTPQTITKEEGESLTINCVLRRNFQLASTSWYRKKSGSTREETISKGGRYVETVNSGSKSFSLRINDLTVEDSGTYRCNVYGFVEFAKNIVEFIDVYGDGTAVTVNA
# notes: as for B2
# B10: B12 VNAR-hFc fusion (Fc fusion)
# chain: ARVDQTPRSVTKETGESLTINCVLRDASYALGSTCWYRKKSGSTNEESISKGGRYVETVNSGSKSFSLRINDLTVEDGGTYRCGVARGWRTLNYLCDVRTGEWSCVWRAAACGDGTAVTVNA
# notes: as for B2
# B11: H6 VNAR-hFc fusion (Fc fusion)
# chain: ARVDQTPQTITKEEGESLTINCVLRTHSNALASTSWYRKKSGSTREETISKGGRYVETVNSGSKSFSLRINDLTVEDSGTYRCNVYAFLEIQPNIYHEFDVYGDGTAVTVNA
# notes: as for B2
# B12: G12 VNAR-hFc fusion (Fc fusion)
# chain: ARVDQTPQTITKETGESLTINCVLRDSNCALSSTYWYRKKSGSTNEALISKGGRYVETVNSGSKSFSLRINDLTVEDSGTYRCNVVQDLRDDCFFRDVYGGGTAVTVNA
# notes: as for B2
# B13: C6 VNAR-hFc fusion (Fc fusion)
# chain: B12 chain with Q87Y
# notes: as for B2
# B14: H7A VNAR-hFc fusion (Fc fusion)
# chain: PGVDQTEQTIKKEEGESVTIKCVMRVKYPALASTSRYRKKSGSREETISKGGRYVETVNYSSKSISVRINDMTVEDSGRYRCNVYEEYAVDCDALVYQDVYGDGTAVTVNA
# notes: as for B2
# B15: G6 VNAR-hFc fusion (Fc fusion)
# chain: ARVDQTPQTITKEEGESLTINCVLRVETRALASTSWYRKKSGSTREETISKGGRYVETVNSGSKSFSLRINDLTVEDSGTYRCNVYIRHYSEFTQAPFRDVYGDGTAVTVNA
# notes: as for B2
# B16: E12 VNAR-hFc fusion (Fc fusion)
# chain: ARVDQTPQTITKEEGESLTINCVLRTQDPALASTSWYRKKSGSTREETISKGGRYVETVNSGSKSFSLRINDLTVEDSGTYRCNVYFLLAPTKTKLQGIDVYGDGTAVTVNA
# notes: as for B2
# B17: D1 VNAR-hFc fusion (Fc fusion)
# chain: ARVDQTPQTITKEEGESLTINCVLRHNYSALASTSWYRKKSGSTREETISKGGRYVETVNSGSKSFSLRINDLTVEDSGTYRCNVYGISFIEEKIRYDFDVYGDGTAVTVNA
# notes: Bivalent VNAR-Fc, VNAR N-terminal to human IgG1 Fc; Expi293; also called D1-hFc; not shown: human IgG1 Fc (hinge, CH2, CH3) of vector pFUSE-hIgG1e3-Fc2
# B18: H7 VNAR-hFc fusion (Fc fusion)
# chain: ARVDQTPQTITKEEGESLTINCVLRYNNPALASTSWYRKKSGSTREETISKGGRYVETVNSGSKSFSLRINDLTVEDSGTYRCNVYFFPSFLVDKLQSHDVYGDGTAVTVNA
# notes: as for B2
# Target: T1, human serum albumin (human, UniProt P02768 25-609)
# T1 construct: Negative control antigen in ELISA; also called HSA
# Assay: ELISA, VNAR-hFc in Expi293 medium on coated HSA (negative control)
# Text: The clones were reformatted as bivalent VNAR-Fc by cloning the VNARs into the commercial pFUSE vector (pFUSE-hIgG1e3-Fc2). The Fc region of the protein contained CH2 and CH3 domains with the hinge that served as a flexible spacer between the two parts of the Fc-fusion protein. N-termini of the construct contained the IL2 signal sequence to allow secretion. A HEK Expi293 expression system was used to transiently express the proteins. The VNAR clones were expressed as Fc formats in mammalian cells in small (1 ml) scale in 96-well plates. Media was collected and used directly for ELISA in order to confirm binding to the ectodomain of mouse and human CD98hc. Human serum albumin was used as the negative control.
# T1 sequence (P02768 25-609 limits assumed): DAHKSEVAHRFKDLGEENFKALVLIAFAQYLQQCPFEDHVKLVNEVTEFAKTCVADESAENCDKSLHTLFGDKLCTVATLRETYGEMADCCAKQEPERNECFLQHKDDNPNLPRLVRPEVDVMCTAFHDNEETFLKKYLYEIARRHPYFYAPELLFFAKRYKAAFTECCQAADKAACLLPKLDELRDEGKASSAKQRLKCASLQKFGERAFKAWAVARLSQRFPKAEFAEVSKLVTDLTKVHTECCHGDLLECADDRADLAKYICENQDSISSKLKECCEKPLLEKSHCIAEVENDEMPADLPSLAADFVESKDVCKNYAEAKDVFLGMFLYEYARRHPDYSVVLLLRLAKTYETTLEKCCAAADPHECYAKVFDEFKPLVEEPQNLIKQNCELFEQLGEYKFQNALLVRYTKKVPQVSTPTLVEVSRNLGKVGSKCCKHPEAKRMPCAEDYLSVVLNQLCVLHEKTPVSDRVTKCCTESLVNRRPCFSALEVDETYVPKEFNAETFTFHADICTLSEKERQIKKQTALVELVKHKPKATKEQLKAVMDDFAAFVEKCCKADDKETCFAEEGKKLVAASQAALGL
row,Binder,Binding [relative units]
1,B1,0.112
2,B2,0.055
3,B3,0.073
4,B4,0.072
5,B5,0.051
6,B6,0.063
7,B7,0.059
8,B8,0.053
9,B9,0.065
10,B10,0.081
11,B11,0.06
12,B12,0.054
13,B13,0.052
14,B14,0.054
15,B15,0.052
16,B16,0.056
17,B17,0.074
18,B18,0.072

# Target: human CD98hc ectodomain (recombinant) (human) (UniProt P08195)
# Assay: ELISA, purified VNAR-Fc titrated on plate-coated CD98hc (1 ug/mL)
# Chain of human CD98hc ectodomain (recombinant) (human) (P08195 206-630): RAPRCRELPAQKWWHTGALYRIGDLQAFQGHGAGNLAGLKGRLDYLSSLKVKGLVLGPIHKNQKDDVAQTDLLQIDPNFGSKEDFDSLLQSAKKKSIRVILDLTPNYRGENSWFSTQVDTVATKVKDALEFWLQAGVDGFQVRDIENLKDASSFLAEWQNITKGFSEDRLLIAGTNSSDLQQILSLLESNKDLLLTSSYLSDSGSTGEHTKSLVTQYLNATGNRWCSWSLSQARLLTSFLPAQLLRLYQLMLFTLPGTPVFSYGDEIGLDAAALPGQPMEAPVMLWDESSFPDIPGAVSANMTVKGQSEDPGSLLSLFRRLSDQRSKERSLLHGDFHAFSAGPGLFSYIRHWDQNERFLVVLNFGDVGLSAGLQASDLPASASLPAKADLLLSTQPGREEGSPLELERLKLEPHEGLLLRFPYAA
row,Binder,EC50 [nM]
1,B1,12
2,B3,3
3,B8,107
4,B11,6
5,B16,56
6,B17,28
7,B18,6

# Target: mouse CD98hc ectodomain (recombinant) (mouse) (UniProt P10852)
# Assay: as above
# Chain of mouse CD98hc ectodomain (recombinant) (mouse) (P10852 100-526): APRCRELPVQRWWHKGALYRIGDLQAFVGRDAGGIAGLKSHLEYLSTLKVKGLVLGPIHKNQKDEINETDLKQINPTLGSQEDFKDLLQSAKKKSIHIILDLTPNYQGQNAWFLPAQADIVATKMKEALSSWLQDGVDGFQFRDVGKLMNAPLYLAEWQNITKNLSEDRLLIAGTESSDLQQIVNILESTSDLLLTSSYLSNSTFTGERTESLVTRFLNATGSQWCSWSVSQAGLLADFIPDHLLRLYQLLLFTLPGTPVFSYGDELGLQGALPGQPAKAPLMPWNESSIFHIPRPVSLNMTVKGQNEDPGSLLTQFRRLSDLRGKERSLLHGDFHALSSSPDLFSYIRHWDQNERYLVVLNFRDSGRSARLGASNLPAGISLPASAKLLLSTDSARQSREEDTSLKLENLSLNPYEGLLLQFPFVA
row,Binder,EC50 [nM]
1,B1,72
2,B3,3860
3,B11,86
4,B16,819
5,B17,190
6,B18,504

# Target: human CD98hc ectodomain (recombinant) (human) (UniProt P08195)
# Assay: ELISA, VNAR-hFc in Expi293 medium on coated ectodomain
row,Binder,Binding [relative units] (relative units)
1,B1,3.99
2,B2,0.046
3,B3,3.76
4,B4,3.03
5,B5,0.043
6,B6,0.049
7,B7,0.048
8,B8,1.48
9,B9,2.97
10,B10,0.076
11,B11,3.31
12,B12,0.044
13,B13,0.041
14,B14,0.043
15,B15,0.042
16,B16,2.19
17,B17,3.5
18,B18,3.93

# Target: mouse CD98hc ectodomain (recombinant) (mouse) (UniProt P10852)
# Assay: as above
row,Binder,Binding [relative units] (relative units)
1,B1,0.563
2,B2,0.045
3,B3,0.115
4,B4,0.096
5,B5,0.041
6,B6,0.065
7,B7,0.049
8,B8,0.041
9,B9,0.135
10,B10,0.084
11,B11,0.186
12,B12,0.044
13,B13,0.042
14,B14,0.043
15,B15,0.041
16,B16,0.078
17,B17,0.417
18,B18,0.108
